From the DeepSol protein solubility set

Test: soluble on expression in E. coli; label from the status in PepcDB or PDB records
In the case of “MDTSQKYRSNNEVDSPQIEHDKQALPSIESLYWGLQQNQQIQGIEQTGEPNGDNQPPQLVIDQLSYDQQQQQPKQNCFDTHGNMDDNRGLYNLPQGAENGSGHLVATESHQLHPPNYNLQQAQTPPPTRHSQYVDAAPQAYGSGQLVPENQRQPESAPDRPYQIMNVGCNPQSAQQHAQMEIPTMSHQLIGTCHNWQSGSQQGTSQNRKDFAGMQSCYGKDQHHQSALNGYHQLQAQPNLYPQHVSNQRPQWAMDQLGYYQQHQQQGPTWSDQNGNEGDNGGLYNHPQGAENGSGHLAATESHQLLPPSNNLQQVQIPAPTRHSQYVGASHLAYGSGQLVPENQLQPEPAPDRSYRKMNVGCNSQYAQQHAQMDQVIGTCHNCQSDSQQGTSQNRDNLAGMKGCCVKDQYHEPAPSGYHPPQAQSNCYPNHPPNPNMNAGDQDRQHVQLNFYTDPGFQQNSHVPYEMQQGFQTTGMQGSYQQNNQPELLFDSNNGNQTVNNAPNGNYQEPVYPLLQEGPTWNNNDNHDYFPSDDSMSQTSQEPVSVESIRKKTKRAKNKLEARKSLQKKKDDLKASRKSWEEVKINHNNILSSNNSNEENIKTAFDQVLYPCFTNQQVIGTFNIIRSYDEVQEGFAQFENDKQNIISKVDYLMKTDRNLKKLRMAKEVSEKQWEQFETDKKNRKEDDKKNKINGGNKLNGKTKIVSSITIATRCSRSKDKKETDAFKHDAKVLKFESSKQTQIKLCLKKYCDKFYPGVRMLLQHNWKFLRDNALHSGQSVQLEKLIECLKTFHLTEHAEKEHNLENS”, the “soluble on expression in E. coli” value is reported as “not soluble”. In the case of “GEETRTEVEKKNYMNNAEEAKDVLLGVYRTNTLDAMYGYYLSILFNLGTDISQVEGSGNENFRIIPTNSFPTTQSEVQQTWAALYTGIYRANDFLERISNKIGSYTTTDKKLATLYIAEARALRGMFYFELVRRFGNVVLMTSTQMSNQNPATYVQSAPEKVYEYIEDDLLYACDILPYATDDQYRESNDYRFSKGAALGLLTKVYATWAGYPVKDESKWEAAAKTARILVESGKHGLLKDYEQLWKNTCNGTWDPTESLIEISFYSPTVSGNSDPVGRIGKWNGVKTTAIAGVRGSCAANVKVVHTFVLDWREDVSDIRRDLSIANYQYTDTKKSLWVAGASDTDESAAEKDADPTKAQKNKQNYTPAKWDIQKYVTTNSFINNDKSNVNWYFLRYADVLLLYAEALNEWKHGPDAEAYNAINAVRRRGYGNPSNTSACDLPQGLDETSFREAVRKERSYELSFEGHRRQDLIRWGIYYKTVQATAKELGYWWEGTGSPNYSVATYTEEGKHELFPIPQRDMDLCIQFNQNPKW”, the “soluble on expression in E. coli” value is reported as “soluble”. With “MDAQYDISFADVEKAHINIRDSIHLTPVLTSSILNQLTGRNLFFKCELFQKTGSFKIRGALNAVRSLVPDALERKPKAVVTHSSGNHGQALTYAAKLEGIPAYIVVPQTAPDCKKLAIQAYGASIVYCEPSDESRENVAKRVTEETEGIMVHPNQEPAVIAGQGTIALEVLNQVPLVDALVVPVGGGGMLAGIAITVKALKPSVKVYAAEPSNADDCYQSKLKGKLMPNLYPPETIADGVKSSIGLNTWPIIRDLVDDIFTVTEDEIKCATQLVWERMKLLIEPTAGVGVAAVLSQHFQTVSPEVKNICIVLSGGNVDLTSSITWVKQAERPASYQSVSVHHHHHH” the “soluble on expression in E. coli” value was “soluble”. For “MGAQVSTQKTGAHETGLRASGNSIIHYTNINYYKDAASNSANRQDFTQDPGKFTEPVKDIMVKSLPALN”, the “soluble on expression in E. coli” value was “soluble”. In the case of “GSGAVTAGAAPRILKHQVVRAELDRMLDGMRIGDPFPAEREIAEQFEVARETVRQALRELLIDGRVERRGRTTVVARPKIRQPLGMGSYTEAAKAQGLSAGRILVAWSDLTADEVLAGVLGVDVGAPVLQLERVLTTDGVRVGLETTKLPAQRYPGLRETFDHEASLYAEIRSRGIAFTRTVDTIDTALPDAREAALLGADARTPMFLLNRVSYDQDDVAIEQRRSLYRGDRMTFTAVMHAKNSAIVS”, the “soluble on expression in E. coli” value is reported as “soluble”. For “MLTLAEKLLLIGLNDETGKVHYQASTALPYGLAGAVLADLMLLGKVELQGKNIVVVDPKPVGQPIFDKALHIINKTPRKRNAKYWVQRLKRDLKTLRQDVLTLLIEQGILKEEKRKILGLFETRTYPAVDGEMEEQVKEKLRVLVLQPTEIEENKELAQERTLVLLSLVNACDLLRQVFDRQEARVVKKQVKHLTKDVPVSKAVKEMVDAINASVVLAITSAAVVTSSSSSSNLEHHHHHH”, the “soluble on expression in E. coli” value was “soluble”. For “MAPSTPLLTVRGSEGLYMVNGPPHFTESTVFPRESGKNCKVCIFSKDGTLFAWGNGEKVNIISVTNKGLLHSFDLLKAVCLEFSPKNTVLATWQPYTTSKDGTAGIPNLQLYDVKTGTCLKSFIQKKMQNWCPSWSEDETLCARNVNNEVHFFENNNFNTIANKLHLQKINDFVLSPGPQPYKVAVYVPGSKGAPSFVRLYQYPNFAGPHAALANKSFFKADKVTMLWNKKATAVLVIASTDVDKTGASYYGEQTLHYIATNGESAVVQLPKNGPIYDVVWNSSSTEFCAVYGFMPAKATIFNLKCDPVFDFGTGPRNAAYYSPHGHILVLAGFGNLRGQMEVWDVKNYKLISKPVASDSTYFAWCPDGEHILTATCAPRLRVNNGYKIWHYTGSILHKYDVPSNAELWQVSWQPFLDGIFPAKTITYQAVPSEVPNEEPKVATAYRPPALRNKPITNSKLHEEEPPQNMKPQSGNDKPLSKTALKNQRKHEAKKAAKQEARSDKSPDLAPTPAPQSTPRNTVSQSISGDPEIDKKIKNLKKKLKAIEQLKEQAATGKQLEKNQLEKIQKETALLQELEDLKLGI”, the “soluble on expression in E. coli” value was “soluble”. For “QNEEEADRIGIQVLQRSGFDPQAMPMFMGKLLDESRYSTRPPEMLLTHPLPESRLADARNRANQMRPVVVQSSADFYLAKARTLGMYTNGDNKLGTDLLNAWDKGNIRQQHAAQYGRALLAMESNNFDQARKTLQPLLNADPQNAWYLDLATDIDLGQKKTSDAINRLKNARELRTNPVLQLNLANALLQGGQPGEAATILNRYTFTYKEDGNGWDLLAQAEGALGNRDQELAARAESMALVGQLEQA”, the “soluble on expression in E. coli” value was “not soluble”. For “MDQKSSSPQPAAQAPETKQAFPRKFVLAALEQSSDDAGWANLGNFGNYLNKLQPDFDSRLYGYKKLSDLVKARTDLFVTEERQVPGSTQKALYLRAKLEHHHHHH”, the “soluble on expression in E. coli” value was “soluble”. With “GMSLPHLSSGEVASVLPLGKQLTQTPSAALFKEHRLEVMRMVLPAGKQVGSHSVAGPSTIQCLEGEVEIGVDGAQRRLHQGDLLYLGAGAAHDVNAITNTSLLVTVVLVDRGGS” the “soluble on expression in E. coli” value was “soluble”. In the case of “MVKLILAEVFNSWQGEGGSVPGSAFGRRQIFVRFAGCDLRCIWCDSSQFIDASKVKKWRIEVEPFSGRFEYRENPASIDEVVDAILKLDTGDLHSISYTGGEPTLQIEGLYILMERMKGLGFDNFLETHGGHPELIKRVSYLTDYASVDIKDESARASRDWRGLVLKEVESIKILKEAGAKVYAKLVVTRETKLENVKWYANLLKGVAPLAIQPKEPMDISMEYLMKLYREAARIMGKKNVGLSFQVHKYLKVL”, the “soluble on expression in E. coli” value is reported as “soluble”. In the case of “MRVGLFTDSYFPQISGVATSIRTLALELEKLGHEVFIFTTTDPNADVDHERNIIRLQSIPFVSLAERKIVLKGVFAAYLIAKEYDLDIIHTQTEFGMGILGKMVAAQLRIPVIHTLHTKYEDYVYYIAKGRLIRPSMVKYIIRNFLRGTEAIICPSEMVLETVNSYGVTLPKRVIPTGIEIDRFKRDDIEPEETAKLRVELGLAENEIMLLSLSRIAAEKNIQAVIHALPDILEEFPVKLVIVGHGPYAENLKELVKELELTDKVVFTGPVENEKTAYYYKAADFFISASTSETQGLTYLEAMAAGTRVLAAKNPYLSELINDDEFGQLFIGDDDLAEVTKKAIRDLHPIDKDKFEKKLYEISAENFAKKVYLFYIDTIIEYNNLKSIEAERFPMKMEDTIRQMPVTVKRSLKREQIRAKYFARKASKLAKNLQSYVKIDKDKEQDLEHHHHHH”, the “soluble on expression in E. coli” value is reported as “soluble”. For “MAKTYGLIGLYSRIVNKIEDSKKYLSLAIEMNIQSGNHKSLFVNELRLAHTYQWETNYHKSNKLFKKLKEQSESDTEHSNYLDSVYQHYGKNLFDQSEYQLALKYVKKALRIRVEKGNKELIDSTEYAINICNEKIKQIKEMAGDPLEHHHHHH”, the “soluble on expression in E. coli” value was “not soluble”. For “MGSDKIHHHHHHMAKKAKVQFECQSCGYVSPKYLGRCPNCGQWNSMVEEVIQDTSDRRARVSLTGKKTQPQRLSEVIPKKEPRVKTELVELNRVLGGGVVPGSLVLIGGDPGIGKSTLLLQVSQQLAATGGTVLYVSGEESAEQIKLRAERLGTVNETFYLYAETDMHEISRAIEKLEPDYVIIDSIQTMTQPDVTSVAGSVSQVRETTAELLKLAKTNGIAIFIVGHVTKEGSIAGPRMLEHMVDTVLYFEGDKHHTFRILRAVKNRFGSTNEIGIFEMQTHGLVEVMNPSQVFLEERLEGATGSSIVVAMEGSRPILVEIQALVTPTMFGNAKRTTTGLDFNRVSLIMAVLEKRAGLLLQNQDAYLKAAGGVKINEPAIDLALAISIASSYKEKGTSSSECFIGEIGLTGEIRRVNSIEQRVREAQKLGFTKVYVPKNNLGGWEAPEGIEIIGVSTIGETLRKVFK”, the “soluble on expression in E. coli” value was “not soluble”. For “MGDIDYQAIEFAYTKCADQQRDTPARHCVIVVGAGPVGLTTALDLARQGLRVVVLDDDYRLSTGSRAICFAKRTLEIWDRLGVGQRMVDKGVSWNVGKVFFRDQEVWRFDLLPEPGHRRPAFINLQQYYAEGYLHELASAQPGIELRWKSKVVGVAQQADGVQVTVDTPDGAYALHVDWLVACDGARSPVRKLLDLETHGRVFKDRFLIADVKMAADYPAERWFWFDPPFHPNQSVLLHMQPDNVWRIDFQLGWNADPVEAVKPENVLPRIRALLGPDADFELEWVSVYTFACERMDHFRHGRVVFAGDSAHRVSPFGARGANSGVQDAENLAWKLKLVLAGHAPESLIDSYAAEREYAADENILNSSRSTDFITPKSEVSRTFRNAVLNLARQHPFARTLVNSGRLSVPAAYADSPLNTPDSDPYAGTMRPGAVALDAPVRADAQPGWWLSQLDGGFALALFCGAETPRADMLDALRALQQDEVPVQPILVCDAGAAPAAAPAGVRVVEDSEGWLARRYDARPGTCYLIRPDQHIAARFRAFDAQAVRRALARAIGRALEHHHHHH”, the “soluble on expression in E. coli” value was “not soluble”. With “MQLHEQIANISVTFNDIPRSDHSMTPTELCYFDDFATTLVVDSVLNFTTHKMSKKRRYLYQDEYRTARTVMKTFREQRDWTNAIYGLLTLRSVSHFLSKLPPNKLFEFRDHIVRFLNMFILDSGYTIQECKRYSQEGHQGAKLVSTGVWSRGDKIERLSGVVCLLSSEDEDSILAQEGSDFSVMYSTRKRCSTLWLGPGAYINHDCRPTCEFVSHGSTAHIRVLRDMVPGDEITCFYGSEFFGPNNIDCECCTCEKNMNGAFSYLRGNENAEPIISEKKTKYELRSRS” the “soluble on expression in E. coli” value was “not soluble”. For “MKLPYSITVTYDHRTSPHIPFSSHIGKQNSFFSFLSRKKSMYHHITFCSVPATDGRARGQRPTGHFHLFFVVNRLLPRTRSTTKPSCSFAQPVTPRTREGAGVRGHRRRRRGSLSLIPWKTSNDKQKDDKRSLFCYMREIIAVGNFSKYMLLEHHHHHH”, the “soluble on expression in E. coli” value was “not soluble”. With “MRNFKKSDKLNNVSYDVRGPVLEEAERMQEEGIRILKLNTGNPAPFGFDAPNEIVRDMIVNVRDSEGYSDSKGIFSARKAIEQYCQLKKFPNVTINDIYTGNGVSELITMCMQGLLNNGDEVLVPMPDYPLWTASVSLAGGTPVHYICDEQAEWYPDIDDIKSKITSNTKAIVIINPNNPTGALYPKELLLEIVEVARQNDLIIYSDEIYDRLVMDGLVHVPIATLAPDLFVVTLNGLSKSHRVAGFRCGWMVLSGDKSRVKGYIEGLNMLASMRLCSNVLSQQIIQTALGGYQSVDGLLLPGGRIYEQREFIYNAINDIPGLSAVKPKAAFYIFPKIDTAKFDIYDDEKFVLDFLHKHHILLVHGGGFNWQQPDHFRIVYLPKMEDLKTTADKMREFLSTYKQK” the “soluble on expression in E. coli” value was “not soluble”.
